Where two headings read alike, the source gives them in different places. Blank lines part the entries; values can stand above or below the binder they belong to.
Experiments:
CD25 on Kit225/K6 cells = molecular target: T1, CD25 on Kit225/K6 cells (human, UniProt P01589 22-272); assay: cell-based or functional assay
T1 sequence (looked up): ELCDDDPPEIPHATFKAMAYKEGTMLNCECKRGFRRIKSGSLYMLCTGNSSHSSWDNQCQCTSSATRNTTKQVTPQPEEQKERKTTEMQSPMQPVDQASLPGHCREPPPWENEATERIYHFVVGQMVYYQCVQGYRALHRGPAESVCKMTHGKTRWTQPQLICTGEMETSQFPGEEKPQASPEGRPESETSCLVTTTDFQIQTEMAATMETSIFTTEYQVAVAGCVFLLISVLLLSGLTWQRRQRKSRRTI

human CD25 = molecular target: T2, human CD25 (human, UniProt P01589 22-213, limits assumed); assay: SPR (BIAcore)
T2 construct: Recombinant soluble human CD25, coated on plates (ELISA) or injected over captured antibody (BIAcore); also called hCD25; IL2-R alpha
T2 sequence (looked up): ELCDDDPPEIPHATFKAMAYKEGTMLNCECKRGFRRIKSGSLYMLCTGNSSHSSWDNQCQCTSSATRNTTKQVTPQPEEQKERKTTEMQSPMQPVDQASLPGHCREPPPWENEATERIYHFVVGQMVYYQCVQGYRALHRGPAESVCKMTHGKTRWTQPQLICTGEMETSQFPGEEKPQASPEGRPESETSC

cynomolgous monkey CD25 [1] = molecular target: T3, cynomolgous monkey CD25 (cynomolgous monkey); assay: SPR (BIAcore), cynomolgous CD25
T3 construct: also called cmCD25; cm

cynomolgous monkey CD25 [2] = molecular target: T3, cynomolgous monkey CD25; assay: SPR (BIAcore), cynomolgous CD25; remark: listed apart in the source
[3] = molecular target: T4, human CD25 (recombinant soluble) (human, UniProt P01589 22-240); assay: SPR (BIAcore), antibody captured, CD25 injected
T4 construct: extracellular domain; bought protein; also called IL2-Rα; recombinant human IL2-Rα
T4 sequence (looked up): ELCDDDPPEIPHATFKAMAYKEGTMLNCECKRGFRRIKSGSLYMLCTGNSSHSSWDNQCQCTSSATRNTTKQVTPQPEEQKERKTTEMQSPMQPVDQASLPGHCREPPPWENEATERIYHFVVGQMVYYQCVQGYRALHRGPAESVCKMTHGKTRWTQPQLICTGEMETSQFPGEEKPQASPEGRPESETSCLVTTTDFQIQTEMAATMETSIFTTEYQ

B1: NST-RN (antibody, IgG1, V domains shown)
VH: QVQLVQSGAEVKKPGSSVKVSCKASGYTFTSYRMHWVRQAPGQGLEWIGYINPSTGYTEYNQKFKDKATITADESTNTAYMELSSLRSEDTAVYYCARGGGVFDYWGQGTLVTVSS
VL: DIQMTQSPSTLSASVGDRVTITCSASSRISYMHWYQQKPGKAPKLLIYTTSNLASGVPARFSGSGSGTEFTLTISSLQPDDFATYYCHQRSTYPLTFGQGTKVEVK
Functional improvement (inhibition of proliferation of Kit225/K6 cells; IC50 normalized to wild type daclizumab) (CD25 on Kit225/K6 cells): 1.5 fold

B4: RNR-SE (antibody, IgG1, name in Kabat numbering, V domains shown)
VH: QVQLVQSGAEVKKPGSSVKVSCKASGYTFTSYRMHWVRQAPGQGLEWIGYIRPNRGYTEYNQKFKDKATITADESTNTAYMELSSLRSEDTAVYYCARGGGVFDYWGQGTLVTVSS
VL: DIQMTQSPSTLSASVGDRVTITCSASSSISYMHWYQQKPGKAPKLLIYTTSELASGVPARFSGSGSGTEFTLTISSLQPDDFATYYCHQRSTYPLTFGQGTKVEVK
notes: IgG1/kappa
Affinity improvement (KD normalized to wild type daclizumab) [3]: 23 fold | Kd [3]: 0.022 nM | koff [3]: 3.34e-05 s⁻¹ | kon [3]: 1.54e+06 M⁻¹ s⁻¹ | Functional improvement (inhibition of proliferation of Kit225/K6 cells; IC50 normalized to wild type daclizumab) (CD25 on Kit225/K6 cells): 2.4 fold

B5: S31A (antibody, IgG1, V domains shown)
VH: QVQLVQSGAEVKKPGSSVKVSCKASGYTFTSYRMHWVRQAPGQGLEWIGYINPSTGYTEYNQKFKDKATITADESTNTAYMELSSLRSEDTAVYYCARGGGVFDYWGQGTLVTVSS
VL: DIQMTQSPSTLSASVGDRVTITCSASSSIAYMHWYQQKPGKAPKLLIYTTSNLASGVPARFSGSGSGTEFTLTISSLQPDDFATYYCHQRSTYPLTFGQGTKVEVK
Functional improvement (inhibition of proliferation of Kit225/K6 cells; IC50 normalized to wild type daclizumab) (CD25 on Kit225/K6 cells): 0.7 fold

B6: VRR-SE (antibody, IgG1, name in Kabat numbering, V domains shown)
VH: QVQLVQSGAEVKKPGSSVKVSCKASGYTFTSYRMHWVRQAPGQGLEWIGYIVPRRGYTEYNQKFKDKATITADESTNTAYMELSSLRSEDTAVYYCARGGGVFDYWGQGTLVTVSS
VL: DIQMTQSPSTLSASVGDRVTITCSASSSISYMHWYQQKPGKAPKLLIYTTSELASGVPARFSGSGSGTEFTLTISSLQPDDFATYYCHQRSTYPLTFGQGTKVEVK
notes: IgG1/kappa; also called VRRE-SE
Affinity improvement (KD normalized to wild type daclizumab) [3]: 17 fold | Kd [3]: 0.029 nM | koff [3]: 3.29e-05 s⁻¹ | kon [3]: 1.24e+06 M⁻¹ s⁻¹ | Functional improvement (inhibition of proliferation of Kit225/K6 cells; IC50 normalized to wild type daclizumab) (CD25 on Kit225/K6 cells): 1.2 fold

B7: T50A (antibody, IgG1, V domains shown)
VH: QVQLVQSGAEVKKPGSSVKVSCKASGYTFTSYRMHWVRQAPGQGLEWIGYINPSTGYTEYNQKFKDKATITADESTNTAYMELSSLRSEDTAVYYCARGGGVFDYWGQGTLVTVSS
VL: DIQMTQSPSTLSASVGDRVTITCSASSSISYMHWYQQKPGKAPKLLIYATSNLASGVPARFSGSGSGTEFTLTISSLQPDDFATYYCHQRSTYPLTFGQGTKVEVK
Functional improvement (inhibition of proliferation of Kit225/K6 cells; IC50 normalized to wild type daclizumab) (CD25 on Kit225/K6 cells): 0.8 fold

B8: SRK-SE (antibody, IgG1, name in Kabat numbering, V domains shown)
VH: QVQLVQSGAEVKKPGSSVKVSCKASGYTFTSYRMHWVRQAPGQGLEWIGYISPRKGYTEYNQKFKDKATITADESTNTAYMELSSLRSEDTAVYYCARGGGVFDYWGQGTLVTVSS
VL: DIQMTQSPSTLSASVGDRVTITCSASSSISYMHWYQQKPGKAPKLLIYTTSELASGVPARFSGSGSGTEFTLTISSLQPDDFATYYCHQRSTYPLTFGQGTKVEVK
notes: IgG1/kappa; also called S52R53K54 VH with S29E53 VL
Affinity improvement (KD normalized to wild type daclizumab) [3]: 31 fold | Kd [3]: 0.016 nM | koff [3]: 2.18e-05 s⁻¹ | kon [3]: 1.38e+06 M⁻¹ s⁻¹ | Functional improvement (inhibition of proliferation of Kit225/K6 cells; IC50 normalized to wild type daclizumab) (CD25 on Kit225/K6 cells): 3.5 fold

B10: RKT-SE (antibody, IgG1, name in Kabat numbering, V domains shown)
VH: QVQLVQSGAEVKKPGSSVKVSCKASGYTFTSYRMHWVRQAPGQGLEWIGYIRPKTGYTEYNQKFKDKATITADESTNTAYMELSSLRSEDTAVYYCARGGGVFDYWGQGTLVTVSS
VL: DIQMTQSPSTLSASVGDRVTITCSASSSISYMHWYQQKPGKAPKLLIYTTSELASGVPARFSGSGSGTEFTLTISSLQPDDFATYYCHQRSTYPLTFGQGTKVEVK
Functional improvement (inhibition of proliferation of Kit225/K6 cells; IC50 normalized to wild type daclizumab) (CD25 on Kit225/K6 cells): 2 fold

B13: Y32A (antibody, IgG1, name in Kabat numbering, V domains shown)
VH: QVQLVQSGAEVKKPGSSVKVSCKASGYTFTSYRMHWVRQAPGQGLEWIGYINPSTGYTEYNQKFKDKATITADESTNTAYMELSSLRSEDTAVYYCARGGGVFDYWGQGTLVTVSS
VL: DIQMTQSPSTLSASVGDRVTITCSASSSISAMHWYQQKPGKAPKLLIYTTSNLASGVPARFSGSGSGTEFTLTISSLQPDDFATYYCHQRSTYPLTFGQGTKVEVK
Functional improvement (inhibition of proliferation of Kit225/K6 cells; IC50 normalized to wild type daclizumab) (CD25 on Kit225/K6 cells): 0.4 fold

Now from value to binder:

Kd (human CD25): 0.121 nM
B2: Variant C26 (antibody, name in Kabat numbering, V domains shown)
VH: QVQLVQSGAEVKKPGSSVKVSCKASGYTFTSYRMHWVRQAPGQGLEWIGYIKPSRGYTEYNQKFKDKATITADKSTNTAYMELSSLRSEDTAVYYCARGGGVFDYWGQGTLVTVSS
VL: DIQMTQSPSTLSASVGDRVTITCSASSSISYMHWYQQKPGKAPKLLIYTTSELASGVPARFSGSGSGTEFTLTISSLQPDDFATYYCHQRSTYPLTFGQGTKVEVK
notes: Isotype as printed: G1 fa; E to K read as E73K

Kd (cynomolgous monkey CD25 [1]): 0.263 nM | Kd (cynomolgous monkey CD25 [2]): 0.263 nM
B3: Variant C27 (antibody, name in Kabat numbering, V domains shown)
VH: QVQLVQSGAEVKKPGSSVKVSCKASGYTFTSYRMHWVRQAPGQGLEWMGYINPSSGYTEYNQKFKDKATITADESTNTAYMELSSLRSEDTAVYYCARGGGVFDYWGQGTLVTVSS
VL: DIQMTQSPSTLSASVGDRVTITCSASSSISYMHWYQQKPGKAPKLLIYTTSNLASGVPARFSGSGSGTEFTLTISSLQPDDFATYYCHQRSTYPLTFGQGTKVEVK
notes: Isotype as printed: G2M3.QL

Kd (human CD25): 0.016 nM
B9: Variant C19 (antibody, name in Kabat numbering, V domains shown)
VH: QVQLVQSGAEVKKPGSSVKVSCKASGYTFTSYRMHWVRQAPGQGLEWIGYISPRKGYTEYNQKFKDKATITADESTNTAYMELSSLRSEDTAVYYCARGGGVFDYWGQGTLVTVSS
VL: DIQMTQSPSTLSASVGDRVTITCSASSSISYMHWYQQKPGKAPKLLIYTTSELASGVPARFSGSGSGTEFTLTISSLQPDDFATYYCHQRSTYPLTFGQGTKVEVK
notes: Isotype as printed: G1 fa; also called SRK-SE

Kd (cynomolgous monkey CD25 [2]): 0.098 nM
B11: Variant C29 (antibody, name in Kabat numbering, V domains shown)
VH: QVQLVQSGAEVKKPGSSVKVSCKASGYTFTSYRMHWVRQAPGQGLEWMGYINPSSGYTEYNQKFKDKATITADESTNTAYMELSSLRSEDTAVYYCARGGGVFDYWGQGTLVTVSS
VL: DIQMTQSPSTLSASVGDRVTITCSASSSISYMHWYQQKPGKAPKLLIYTTSELASGVPARFSGSGSGTEFTLTISSLQPDDFATYYCHQRSTYPLTFGQGTKVEVK
notes: Isotype as printed: G2M3.QL

Kd (human CD25): 0.022 nM
B12: Variant C16 (antibody, name in Kabat numbering, V domains shown)
VH: QVQLVQSGAEVKKPGSSVKVSCKASGYTFTSYRMHWVRQAPGQGLEWIGYIRPNRGYTEYNQKFKDKATITADESTNTAYMELSSLRSEDTAVYYCARGGGVFDYWGQGTLVTVSS
VL: DIQMTQSPSTLSASVGDRVTITCSASSSISYMHWYQQKPGKAPKLLIYTTSELASGVPARFSGSGSGTEFTLTISSLQPDDFATYYCHQRSTYPLTFGQGTKVEVK
notes: Isotype as printed: G1 fa; also called RNR-SE

Kd (human CD25): 0.029 nM
B14: Variant C15 (antibody, name in Kabat numbering, V domains shown)
VH: QVQLVQSGAEVKKPGSSVKVSCKASGYTFTSYRMHWVRQAPGQGLEWIGYIVPRRGYTEYNQKFKDKATITADESTNTAYMELSSLRSEDTAVYYCARGGGVFDYWGQGTLVTVSS
VL: DIQMTQSPSTLSASVGDRVTITCSASSSISYMHWYQQKPGKAPKLLIYTTSELASGVPARFSGSGSGTEFTLTISSLQPDDFATYYCHQRSTYPLTFGQGTKVEVK
notes: Isotype as printed: G1 fa; also called VRR-SE
